Assay results from patent US20120295975A1 (University of California, published 2012).
Values belong to the binder of their own block, whether it stands above or below them.

Tests used:
[1] = target: T1, β-arrestin2 (endogenous, RAW 264.7 cells) (mouse, UniProt Q91YI4 1-410); assay: co-IP, RAW 264.7 cells, DHA 30 min (FIG. 3E)
T1 construct: Endogenous protein in cell lysate; also called βarr2
Method: (§1) FIG. 3. GPR120 internalization with β-arrestin2 mediates anti-inflammatory effects. (A) RAW 264.7 cells were transfected with siRNA as indicated and stimulated with or without 100 μM of DHA 1 hr prior to LPS (100 ng/ml) treatment for 10 min and then subjected to western blotting. […] (C) Phosphorylation of TAK1 and MKK4 in RAW 264.7 cells with or without siRNA transfection as indicated. (D) HEK 293 cells were co-transfected with HA-GPR120 and β-arrestin2.GFP to analyze GPR120 internalization after DHA stimulation for the indicated times. GPR120 (left column) and β-arrestin2 (middle column) were localized by confocal microscopy. (E) Co-immunoprecipitation between GPR120 and β-arrestin2 with DHA stimulation for 30 min in RAW 264.7 cells and, (F) HEK 293 cells (HA-GPR120 and (β-arrestin2*GFP), respectively. Lysate indicates 1/10 input in each experiment. Interaction between TAB1 and β-arrestin2 (G), and interaction between TAB1 and TAK1 (H) were detected by co-immunoprecipitation and the scanned bar graph quantitates the association in RAW 264.7 cells. (I) Schematic diagram of the β-arrestin2 and GPR120-mediated anti-inflammatory mechanism. The left half of the diagram indicate the DHA-mediated anti-inflammatory effect, and the right half of the diagram indicate the LPS- and TNF-α-induced inflammatory pathway. See also FIG. 9. […]

[2] = target: T2, transforming growth factor-β activated kinase 1 (TAK1), endogenous, RAW 264.7 cells (mouse, UniProt Q62073 1-579); assay: co-IP, RAW 264.7 cells (FIG. 3H)
T2 construct: Endogenous protein in cell lysate
T2 sequence (looked up): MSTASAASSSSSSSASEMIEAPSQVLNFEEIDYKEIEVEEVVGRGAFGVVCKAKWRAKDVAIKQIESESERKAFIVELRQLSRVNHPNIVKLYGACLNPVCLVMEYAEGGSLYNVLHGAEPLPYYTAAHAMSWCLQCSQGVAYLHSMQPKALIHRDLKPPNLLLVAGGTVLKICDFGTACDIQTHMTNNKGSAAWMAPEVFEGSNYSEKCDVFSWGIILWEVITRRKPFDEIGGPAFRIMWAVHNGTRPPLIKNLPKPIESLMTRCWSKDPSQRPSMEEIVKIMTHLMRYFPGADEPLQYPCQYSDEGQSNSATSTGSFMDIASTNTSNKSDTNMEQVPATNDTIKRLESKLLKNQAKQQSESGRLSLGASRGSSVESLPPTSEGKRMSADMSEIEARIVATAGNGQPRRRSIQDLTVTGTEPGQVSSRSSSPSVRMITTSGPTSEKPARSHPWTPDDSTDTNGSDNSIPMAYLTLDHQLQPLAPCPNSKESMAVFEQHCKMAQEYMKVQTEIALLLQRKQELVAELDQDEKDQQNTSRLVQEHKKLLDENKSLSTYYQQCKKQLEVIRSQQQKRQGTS
Method: as §1

T1 sequence (Q91YI4 whole entry): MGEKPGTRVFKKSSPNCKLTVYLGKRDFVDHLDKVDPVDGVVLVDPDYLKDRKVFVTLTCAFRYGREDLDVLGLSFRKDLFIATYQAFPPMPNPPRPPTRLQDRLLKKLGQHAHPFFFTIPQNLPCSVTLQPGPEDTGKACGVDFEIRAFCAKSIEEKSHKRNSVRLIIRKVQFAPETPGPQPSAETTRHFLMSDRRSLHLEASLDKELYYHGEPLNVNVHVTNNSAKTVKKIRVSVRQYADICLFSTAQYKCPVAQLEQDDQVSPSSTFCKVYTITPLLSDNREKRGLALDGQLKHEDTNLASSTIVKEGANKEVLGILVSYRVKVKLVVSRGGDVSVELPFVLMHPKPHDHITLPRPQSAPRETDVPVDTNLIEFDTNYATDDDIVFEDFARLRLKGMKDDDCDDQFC

binding result [1]: binds
B1: GPR120 (endogenous, RAW 264.7 cells) (receptor, mouse, UniProt Q7TMA4 1-361, looked up)
chain: MSPECAQTTGPGPSHTLDQVNRTHFPFFSDVKGDHRLVLSVVETTVLGLIFVVSLLGNVCALVLVARRRRRGATASLVLNLFCADLLFTSAIPLVLVVRWTEAWLLGPVVCHLLFYVMTMSGSVTILTLAAVSLERMVCIVRLRRGLSGPGRRTQAALLAFIWGYSALAALPLCILFRVVPQRLPGGDQEIPICTLDWPNRIGEISWDVFFVTLNFLVPGLVIVISYSKILQITKASRKRLTLSLAYSESHQIRVSQQDYRLFRTLFLLMVSFFIMWSPIIITILLILIQNFRQDLVIWPSLFFWVVAFTFANSALNPILYNMSLFRNEWRKIFCCFFFPEKGAIFTDTSVRRNDLSVISS
notes: whole, on cells; also called ω-3 FA receptor/sensor

binding result [2]: binds
B2: TAK1 binding protein 1 (TAB1), endogenous, RAW 264.7 cells (other, mouse, UniProt Q8CF89 1-502, looked up)
chain: MAAQRRSLLQSEQQPSWTDDLPLCHLSGVGSASNRSYSADGKGTESHPPEDNWLKFRSENNCFLYGVFNGYDGNRVTNFVAQRLSAELLLGQLNTEHTEADVRRVLLQAFDVVERSFLESIDDALAEKASLQSQLPEGVPQHQLPPQYQKILERLKALEREISGGAMAVVAVLLNSKLYVANVGTNRALLCKSTVDGLQVTQLNMDHTTENEDELFRLSQLGLDAGKIKQMGVICGQESTRRIGDYKVKYGYTDIDLLSAAKSKPIIAEPEIHGAQPLDGVTGFLVLMSEGLYKALEAAHGPGQANQEIAAMIDTEFAKQTSLDAVAQAVVDRVKRIHSDTFASGGERAKFCPRHEDMTLLVRNFGYPLGEMSQPTPTPAPGGRVYPVSVPYSSAQSTSKTSVTLSLVMPSQGQMVNGSHSASTLDEATPTLTNQSPTLTLQSTNTHTQSSSSSSDGGLFRSRPAHSLPPGEDGRVEPYVDFAEFYRLWSVDHGEQSVMTAP
notes: Endogenous protein in cell lysate
